The values that follow come from US12534534 (F STAR BETA, dated 2026).

Assay [1] addresses T1, hCD137-mFc-Avi (human, UniProt Q07011 24-186).
T1 construct: dimer; also called human CD137-mFc-Avi; human CD137-mFc
Nature of the assay: ELISA, hCD137-mFc-Avi coated, 100 nM antibody, competitor CD137L-His; normalised to G1/11D4 = 0 and G1/MOR7480.1 = 100; mean of n=2. As for the experimental part:
The following day, plates were washed with PBST (PBS+0.05% Tween20™) and blocked with PBS+1% BSA (Sigma, A3059-500G) for 1 hour at room temperature with agitation. After blocking, the plates were washed again with PBST. A 100 nM dilution of each test antibody was prepared in PBS+1% BSA and added to the CD137-coated plates and incubated for 1 hour at room temperature with agitation. […] The plates were then washed with PBST and then incubated with anti-his secondary antibody (R&D Systems, MAB050H) at a 1 in 1000 dilution in PBS for 1 hour at room temperature with agitation. The plates were then washed with PBST and incubated with TMB detection reagent (Thermo Fisher Scientific, 002023) until the positive control wells turned blue and then the reaction was stopped with the addition of 2N H_2SO_4. Plates were read at 450 nm using the plate reader with Gen5 Software, BioTek. Absorbance values of 630 nm were subtracted from those of 450 nm (Correction). The subtracted absorbance values were plotted vs the log concentration of antibody and the resulting curves were fitted using the log (inhibitor) vs response equation in GraphPad Prism.

For assay [2], the target named is T1, hCD137-mFc-Avi. Nature of the assay: cell-based, 100 nM hCD137-mFc-Avi with 200 nM antibody, competitor human CD137L on DO11.10 cells, GMFI normalised to G1/11D4 = 0 and G1/MOR7480.1 = 100; mean of n=2. The procedure: The cells were washed once in PBS and 100 μl/well of secondary antibody (anti-mouse Fc-488 antibody, Jackson Immuno Research, 115-546-008) diluted 1:1000 in PBS containing 2% BSA was then added and incubated for 30 mins at 4° C. in the dark. The cells were washed once with PBS and resuspended in 100 μl of PBS containing DAPI (Biotium, 40043) at 1 μg/ml. The cells were analysed using a Canto II flow cytometer (BD Bioscience). Dead cells were excluded and the fluorescence in the FITC channel (488 nm/530/30) was measured. […] The data was analysed using a one-way ANOVA test and Tukey's multiple comparisons test using GraphPad Prism.

The target in assay [3] is human CD137 on DO11.10-hCD137 cells (human, UniProt Q07011 24-255). Nature of the assay: cell-based or functional assay.
For assay [4], the target named is T1, hCD137-mFc-Avi. The experiment in a line: SPR, antigens immobilised on CM5 chip, mAb^2 at 1 µM and 1 nM, binding level at end of association. As for the experimental part:
CD137 belongs to the tumour necrosis factor receptor superfamily (TNFRSF) of cytokine receptors (Moran et al., 2013). To analyse the specificity of the anti-CD137 Fab binding site of the five mAb² molecules, binding of the mAb² to human CD137 and five closely-related human TNFRSF members (TNFRSF1A, TNFRSF1B, GITR, NGFR and CD40) was tested using SPR.
(§1) Flow cell 1 was run as a blank immobilisation. The five FS20-22-49AA/FS30 mAb² were diluted to 1 μM and 1 nM in 1×HBS-EP buffer (GE Healthcare, product code BR100188), allowed to flow over the chip for 3 min and then allowed to dissociate for 4 minutes. A 30-second injection of 10 mM glycine pH 1.5 was used for regeneration. […] Binding levels were determined at the end of the association phase and compared.

The target in assay [5] is human CD137 on primary human CD8+ T cells (human, UniProt Q07011 24-255). Nature of the assay: cell-based or functional assay.
A further assay concerns the target T2, TNFRSF1A-Fc (human, UniProt P19438 30-211, limits assumed).
T2 construct: bought; also called TNFRSF1A (R&D Systems, 372-RI-050/CF); not shown: Fc part of the bought fusion
T2 sequence (looked up): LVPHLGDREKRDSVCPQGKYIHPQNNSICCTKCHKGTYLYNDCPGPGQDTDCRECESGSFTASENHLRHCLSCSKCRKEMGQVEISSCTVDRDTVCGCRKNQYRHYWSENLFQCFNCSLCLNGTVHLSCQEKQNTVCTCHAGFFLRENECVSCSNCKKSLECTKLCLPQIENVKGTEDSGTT
Nature of the assay: SPR, antigen immobilised on CM5 chip. The procedure:
as §1
(§2) Specificity was tested against the same five human TNFRSF members closely-related to CD137 (TNFRSF1A, TNFRSF1B, GITR, NGFR and CD40) plus an additional closely-related TNFRSF member, human DR6 (DR6-Fc; R&D Systems, 144-DR-100), using SPR as described in Example 3.1.

Another assay has as its target T3, TNFRSF1B-Fc (human, UniProt P20333 23-257).
T3 construct: bought; also called TNFRSF1B (R&D Systems, 726-R2-050); not shown: Fc part of the bought fusion
T3 sequence (looked up): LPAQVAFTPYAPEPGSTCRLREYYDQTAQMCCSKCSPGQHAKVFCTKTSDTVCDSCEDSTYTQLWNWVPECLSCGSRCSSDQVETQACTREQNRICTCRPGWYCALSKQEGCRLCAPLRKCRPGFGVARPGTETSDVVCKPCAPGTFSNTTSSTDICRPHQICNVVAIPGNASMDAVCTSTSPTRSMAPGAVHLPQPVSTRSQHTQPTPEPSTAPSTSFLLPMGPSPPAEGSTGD
The experiment in a line: SPR, antigen immobilised on CM5 chip. The procedure:
as §1, §2
On the technique in general: In SPR one partner is held on a chip, and binding of the other changes the refractive index at the surface.

In a further assay the target is T4, GITR-hFc-Avi (human, UniProt Q9Y5U5 26-161).
T4 construct: in-house produced; not shown: hFc and Avi part
T4 sequence: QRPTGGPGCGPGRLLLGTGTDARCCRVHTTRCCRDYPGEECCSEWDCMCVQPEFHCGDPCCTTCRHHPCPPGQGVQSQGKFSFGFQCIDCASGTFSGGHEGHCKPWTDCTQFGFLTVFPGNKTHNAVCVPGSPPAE
Nature of the assay: SPR, antigen immobilised on CM5 chip. As for the experimental part: as §1, §2

The target of a further assay is T5, NGFR-Fc (human, UniProt P08138 29-250).
T5 construct: bought; also called NGFR (R&D Systems, 367-NR-050/CF); not shown: Fc part of the bought fusion
T5 sequence (looked up): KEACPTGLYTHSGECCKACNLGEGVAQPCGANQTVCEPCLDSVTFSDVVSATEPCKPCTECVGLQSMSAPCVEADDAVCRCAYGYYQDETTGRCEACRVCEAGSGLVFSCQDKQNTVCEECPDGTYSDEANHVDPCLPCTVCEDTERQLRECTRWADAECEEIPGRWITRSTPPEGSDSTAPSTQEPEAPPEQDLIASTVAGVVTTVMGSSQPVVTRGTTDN
Nature of the assay: SPR, antigen immobilised on CM5 chip. The procedure: as §1, §2

The next assay concerns the target T6, CD40-mFc (human, UniProt P25942 21-193).
T6 construct: in-house produced; not shown: mFc part
The experiment in a line: SPR, antigen immobilised on CM5 chip. The procedure: as §1, §2

Numbering of substitutions follows the chain as printed.

B1: FS20-22-49AA/4420 (bispecific antibody, human IgG1, kappa, L234A L235A, V domains shown)
VH: EVKLDETGGGLVQPGRPMKLSCVASGFTFSDYWMNWVRQSPEKGLEWVAQIRNKPYNYETYYSDSVKGRFTISRDDSKSSVYLQMNNLRVEDMGIYYCTGSYYGMDYWGQGTSVTVSS
VL: DVVMTQTPLSLPVSLGDQASISCRSSQSLVHSNGNTYLRWYLQKPGQSPKVLIYKVSNRFSGVPDRFSGSGSGTDFTLKISRVEAEDLGVYFCSQSTHVPWTFGGGTKLEIKR
notes: anti-OX40 Fcab FS20-22-49AA with the Fab of anti-FITC antibody 4420; IgG1 LALA; also called negative control mAb^2
B1: the figures for the “% CD137 ligand blocking activity” value in the assay with hCD137-mFc-Avi [1] and with hCD137-mFc-Avi [2] were -0.3% and 2%, respectively.

B2: FS20-22-49AA/FS30-10 (bispecific antibody, human IgG1, kappa, L234A L235A, V domains shown)
VH: EVQLLESGGGLVQPGGSLRLSCAASGFTFSSYDMSWVRQAPGKGLEWVSDIDPTGSKTDYADSVKGRFTISRDNSKNTLYLQMNSLRAEDTAVYYCARDLMVYGFDYWGQGTLVTVSS
VL: EIVLTQSPGTLSLSPGERATLSCRASQSVSSSYLAWYQQKPGQAPRLLIYGASSRATGIPDRFSGSGSGTDFTLTISRLEPEDFAVYYCQQSYSYPVTFGQGTKVEIKR
notes: also called FS30-10 in mAb^2 format
Regarding B2, in assay [3], the “DO11.10-hCD137 T cell activation assay EC50 (nM), crosslinked” value turned out to be 10.2 nM. Also, in the assay with hCD137-mFc-Avi [4], the “fold specificity for CD137 over TNFRSF1A, TNFRSF1B, GITR, NGFR and CD40” value (shortened to “fold specificity for CD137 over TNFRSF1A”) is around 1000 fold.

B3: G1AA/FS30-6 (antibody, human IgG1, kappa, L234A L235A, V domains shown)
VH: EVQLLESGGGLVQPGGSLRLSCAASGFTVSYYSISWVRQAPGKGLEWVSDIYSYYGYTDYADSVKGRFTISRDNSKNTLYLQMNSLRAEDTAVYYCARVSYGGQAFDYWGQGTLVTVSS
VL: B2 VL with S92Y, Y93D, S94D
Turning to B3, in [5], the “Activity of non-crosslinked mAbs at 100 nM (hIL-2 pg/ml)” value amounted to 532 pg/mL; the “EC50 (nM), hIL-2 release, primary human CD8+ T cell activation assay, crosslinked mAb” value turned out to be 1 nM; the “Emax (hIL-2 pg/ml), crosslinked mAb” value came out at 1510 pg/mL.

B4: FS20-22-49AA/FS30-15 (bispecific antibody, human IgG1, kappa, L234A L235A, V domains shown)
VH: EVQLLESGGGLVQPGGSLRLSCAASGFTFSGSGMSWVRQAPGKGLEWVSIIYSTNGDTDYADSVKGRFTISRDNSKNTLYLQMNSLRAEDTAVYYCARDFYDIANYYAFDYWGQGTLVTVSS
VL: B2 VL with S92A, S94Y, Y95D, V97I
notes: also called FS30-15 in mAb^2 format
Take B4: the binding result with TNFRSF1A-Fc, with TNFRSF1B-Fc, with GITR-hFc-Avi, with NGFR-Fc and in the assay with CD40-mFc was “binds” throughout.

B5: FS20-22-49AA/FS30-5 variant, Methionine (100D) to I (bispecific antibody, V domains shown)
VH: EVQLLESGGGLVQPGGSLRLNCAASGFTFSSYAMSWVRQAPGKGLEWVSAISGSGGSTYYADSVKGRFTISRDNSKNTLYLQMNSLRAEDTAVYYCARSYDKYWGSSIYSGMDYWGQGTLVTVSS
VL: EIVLTQSPGTLSLSPGERATLSCRASQSVSSSYLAWYQQKPGQAPRLLIYGASSRATGIPDRFSGSGSGTDFTLTISRLEPEDFAVYYCQQYYSYYPVTFGQGTKVEIKR
Take B5: the “DO11.10-hCD137 T cell activation assay EC50 (nM), crosslinked” value in assay [3] was 4.4 nM.

B6: FS20-22-49AA/FS30-35 (bispecific antibody, human IgG1, kappa, L234A L235A, V domains shown)
VH: EVQLLESGGGLVQPGGSLRLSCAASGFTFSAYNIHWVRQAPGKGLEWVSDISPYGGATNYADSVKGRFTISRDNSKNTLYLQMNSLRAEDTAVYYCARNLYELSAYSYGMDYWGQGTLVTVSS
VL: B5 VL with S94Y, Y95S, Y96S, V98I
notes: also called FS30-35 in mAb^2 format
For B6, the “DO11.10-hCD137 T cell activation assay EC50 (nM), crosslinked” value in assay [3] turned out to be 5.5 nM. Also, the “fold specificity for CD137 over TNFRSF1A” value with hCD137-mFc-Avi [4] was around 1000 fold.

B7: FS20-22-49AA/FS30-5 (bispecific antibody, human IgG1, kappa, L234A L235A, V domains shown)
VH: B5 VH with I108M
VL: B5 VL
notes: also called FS30-5 in mAb^2 format
As to B7, the “DO11.10-hCD137 T cell activation assay EC50 (nM), crosslinked” value in assay [3] was found to be 4.8 nM. Besides, in the assay with hCD137-mFc-Avi [4], the “fold specificity for CD137 over TNFRSF1A” value is around 1000 fold.

B8: FS20-22-49AA/FS30-16 (bispecific antibody, human IgG1, kappa, L234A L235A, V domains shown)
VH: EVQLLESGGGLVQPGGSLRLSCAASGFTFSNYAMHWVRQAPGKGLEWVSTIDPTDGATNYADSVKGRFTISRDNSKNTLYLQMNSLRAEDTAVYYCARSKYYTYMQYVALDYWGQGTLVTVSS
VL: B5 VL with Y92G, Y93S, S94R, Y95F, Y96F, V98I
notes: also called FS30-16 in mAb^2 format
On to B8, for which the “fold specificity for CD137 over TNFRSF1A” value in the assay with hCD137-mFc-Avi [4] was around 1000 fold.

B9: FS20-22-49AA/FS30-35 variant, Methionine (100F) to H (bispecific antibody, V domains shown)
VH: B6 VH with M110H
VL: B5 VL with S94Y, Y95S, Y96S, V98I
With B9, the “DO11.10-hCD137 T cell activation assay EC50 (nM), crosslinked” value in assay [3] worked out at 9.5 nM.
